Experimental data as given in the supplement of paper PMC7877785.
± gives the uncertainty stated by the source.

Assay: self-splicing fitness, log relative to wild type (ln ratio); higher = more splicing; Tetrahymena group I intron in knt gene, E. coli kanamycin selection, DiMSum; sequences stand for … in CUCUCU…GGAGGGAAAAGUUAUCAGGCAUGCACCUGGUAGCUAGUCUUUAAACCAAUAGAUUGCAUCGGUUUAAAAGGCAAGACCGUCAAAUUGCGGGAAAGGGGUCAACAGCCGUUCAGUACCAAGUCUCAGGGGAAACUUUGAGAUGGCCUUGCAAAGGGUAUGGUAAUAAGCUGACGGACAUGGUCCUAACCACGCAGCCAAGUCCUAAGUCAACAGAUCUUCUGUUGAUAUGGAUGCAGUUCACAGACUAAAUGUCGGUCGGGGAAGAUGUAUUCUUCUCAUAAGAUAUAGUCGGACCUCUCCUUAAUGGGAGCUAGCGGAUGAAGUGAUGCAACACUGGAGCCGCUGGGAACUAAUUUGUAUGCGAAAGUAUAUUGAUUAGUUUUGGAGUACUCGUGGUCG
Outline: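 Pooled colonies went to amplicon sequencing on an Illumina HiSeq 2500 after six replicate transformations. The plates were LB agar with 100 μg/mL carbenicillin, 50 μM IPTG and 0.2% rhamnose, with or without 25 μg/mL kanamycin, incubated overnight at 37°C or 30°C. The E. coli BL21(DE3) library had all eight P1ex-region intron nucleotides randomised, the intron placed in the knt kanamycin-resistance gene on pET-22b(+). DiMSum fitness is the error-weighted combination of replicate fold changes, kanamycin against none, normalised to wild type.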

Sequence: UAACAGCAAUAUUACGUAGA
- self-splicing fitness (ln) (30 °C): -2.81 ± 0.071
- self-splicing fitness (ln) (37 °C): -1.37 ± 0.086

Sequence: UAACAGCAAUAUUACGGGCG
- self-splicing fitness (ln) (30 °C): -0.476 ± 0.064
- self-splicing fitness (ln) (37 °C): 0.217 ± 0.087

Sequence: AGCAAGCAAUAUUACGGGUG
- self-splicing fitness (ln) (30 °C): -1.36 ± 0.056
- self-splicing fitness (ln) (37 °C): -0.789 ± 0.076

Sequence: CUAGAGCAAUAUUACGCACC
- self-splicing fitness (ln) (30 °C): -2.44 ± 0.41

Sequence: CUCUAGCAAUAUUACGUAAC
- self-splicing fitness (ln) (30 °C): -3.47 ± 0.29

Sequence: UUAUAGCAAUAUUACGUACC
- self-splicing fitness (ln) (30 °C): -3.97 ± 0.31
- self-splicing fitness (ln) (37 °C): -3.01 ± 0.3

Sequence: AAGUAGCAAUAUUACGUCGA
- self-splicing fitness (ln) (30 °C): -1.34 ± 0.1
- self-splicing fitness (ln) (37 °C): -1.07 ± 0.11

Sequence: UCAAAGCAAUAUUACGCCGA
- self-splicing fitness (ln) (30 °C): -1.49 ± 0.15
- self-splicing fitness (ln) (37 °C): -0.381 ± 0.12

Sequence: CAUUAGCAAUAUUACGGGCG
- self-splicing fitness (ln) (30 °C): -0.183 ± 0.092
- self-splicing fitness (ln) (37 °C): 0.436 ± 0.098

Sequence: CUUGAGCAAUAUUACGGUGA
- self-splicing fitness (ln) (30 °C): -3.34 ± 0.27
- self-splicing fitness (ln) (37 °C): -2 ± 0.25

Sequence: CCGUAGCAAUAUUACGCAAU
- self-splicing fitness (ln) (30 °C): -3.31 ± 0.24
- self-splicing fitness (ln) (37 °C): -2.05 ± 0.22

Sequence: CCAGAGCAAUAUUACGUAAA
- self-splicing fitness (ln) (30 °C): -2.75 ± 0.2
- self-splicing fitness (ln) (37 °C): -1.29 ± 0.3

Sequence: UCCCAGCAAUAUUACGUGAA
- self-splicing fitness (ln) (30 °C): 0.116 ± 0.045
- self-splicing fitness (ln) (37 °C): 0.582 ± 0.067

Sequence: AGCGAGCAAUAUUACGCGAG
- self-splicing fitness (ln) (30 °C): -1.35 ± 0.22
- self-splicing fitness (ln) (37 °C): -3.05 ± 0.4

Sequence: CUCAAGCAAUAUUACGAUUC
- self-splicing fitness (ln) (30 °C): -4.11 ± 0.27
- self-splicing fitness (ln) (37 °C): -2.26 ± 0.24

Sequence: AAACAGCAAUAUUACGAACG
- self-splicing fitness (ln) (30 °C): -2.5 ± 0.12
- self-splicing fitness (ln) (37 °C): -0.625 ± 0.12

Sequence: GUUCAGCAAUAUUACGAUUA
- self-splicing fitness (ln) (30 °C): -0.665 ± 0.12
- self-splicing fitness (ln) (37 °C): -0.545 ± 0.097

Sequence: GUGUAGCAAUAUUACGACAU
- self-splicing fitness (ln) (30 °C): -2.608 ± 0.022
- self-splicing fitness (ln) (37 °C): -1.52 ± 0.037

Sequence: CGUUAGCAAUAUUACGUCGG
- self-splicing fitness (ln) (30 °C): -0.297 ± 0.1
- self-splicing fitness (ln) (37 °C): 0.0154 ± 0.14

Sequence: AGGCAGCAAUAUUACGAUCG
- self-splicing fitness (ln) (30 °C): -0.369 ± 0.077
- self-splicing fitness (ln) (37 °C): 0.135 ± 0.093

Sequence: GGAAAGCAAUAUUACGAUUG
- self-splicing fitness (ln) (30 °C): -3.56 ± 0.28
- self-splicing fitness (ln) (37 °C): -1.82 ± 0.23

Sequence: CAAAAGCAAUAUUACGUGGG
- self-splicing fitness (ln) (30 °C): -3.26 ± 0.12
- self-splicing fitness (ln) (37 °C): -2.6 ± 0.12

Sequence: UGUCAGCAAUAUUACGUACC
- self-splicing fitness (ln) (30 °C): -0.242 ± 0.11
- self-splicing fitness (ln) (37 °C): -0.159 ± 0.13

Sequence: GUGUAGCAAUAUUACGAUGU
- self-splicing fitness (ln) (30 °C): -1.36 ± 0.12
- self-splicing fitness (ln) (37 °C): -0.234 ± 0.14

Sequence: UGAGAGCAAUAUUACGAACU
- self-splicing fitness (ln) (30 °C): -3.05 ± 0.43
- self-splicing fitness (ln) (37 °C): -2.02 ± 0.24

Sequence: ACAUAGCAAUAUUACGCAGA
- self-splicing fitness (ln) (30 °C): -2.47 ± 0.14
- self-splicing fitness (ln) (37 °C): -1.74 ± 0.14

Sequence: GCGUAGCAAUAUUACGCGGG
- self-splicing fitness (ln) (30 °C): -3.78 ± 0.24
- self-splicing fitness (ln) (37 °C): -2.75 ± 0.3

Sequence: AAACAGCAAUAUUACGGCUA
- self-splicing fitness (ln) (30 °C): -0.275 ± 0.064
- self-splicing fitness (ln) (37 °C): -0.0695 ± 0.076

Sequence: GCCUAGCAAUAUUACGUAUC
- self-splicing fitness (ln) (30 °C): -1.26 ± 0.076
- self-splicing fitness (ln) (37 °C): -0.501 ± 0.094

Sequence: UACCAGCAAUAUUACGCUGA
- self-splicing fitness (ln) (30 °C): -2.43 ± 0.15
- self-splicing fitness (ln) (37 °C): -1.21 ± 0.11

Sequence: GAGAAGCAAUAUUACGCCCA
- self-splicing fitness (ln) (30 °C): -0.503 ± 0.2
- self-splicing fitness (ln) (37 °C): -0.351 ± 0.18

Sequence: UUCGAGCAAUAUUACGAGGU
- self-splicing fitness (ln) (30 °C): -2.94 ± 0.48
- self-splicing fitness (ln) (37 °C): -1.52 ± 0.43

Sequence: UAGCAGCAAUAUUACGCCAC
- self-splicing fitness (ln) (30 °C): -3.82 ± 0.39
- self-splicing fitness (ln) (37 °C): -1.45 ± 0.3

Sequence: AUAUAGCAAUAUUACGUUCG
- self-splicing fitness (ln) (30 °C): -1.57 ± 0.2
- self-splicing fitness (ln) (37 °C): -0.377 ± 0.27

Sequence: ACUGAGCAAUAUUACGGAGC
- self-splicing fitness (ln) (30 °C): -2.54 ± 0.23
- self-splicing fitness (ln) (37 °C): -1.44 ± 0.28

Sequence: AGAGAGCAAUAUUACGCAUG
- self-splicing fitness (ln) (30 °C): -3.23 ± 0.22
- self-splicing fitness (ln) (37 °C): -1.9 ± 0.35

Sequence: AUGUAGCAAUAUUACGGAAU
- self-splicing fitness (ln) (30 °C): -1.46 ± 0.082
- self-splicing fitness (ln) (37 °C): -0.789 ± 0.11

Sequence: GACUAGCAAUAUUACGCACU
- self-splicing fitness (ln) (30 °C): -0.55 ± 0.11
- self-splicing fitness (ln) (37 °C): 0.415 ± 0.16

Sequence: AGGAAGCAAUAUUACGCCUG
- self-splicing fitness (ln) (30 °C): -1.15 ± 0.14
- self-splicing fitness (ln) (37 °C): 0.257 ± 0.17

Sequence: CUUAAGCAAUAUUACGGUAU
- self-splicing fitness (ln) (30 °C): -4.7 ± 0.34
- self-splicing fitness (ln) (37 °C): -2.35 ± 0.22

Sequence: GGACAGCAAUAUUACGCGCC
- self-splicing fitness (ln) (30 °C): -2.93 ± 0.2

Sequence: GGCAAGCAAUAUUACGAUAG
- self-splicing fitness (ln) (30 °C): -2.73 ± 0.19
- self-splicing fitness (ln) (37 °C): -2.18 ± 0.14

Sequence: CAUCAGCAAUAUUACGCGCC
- self-splicing fitness (ln) (30 °C): -2.74 ± 0.27
- self-splicing fitness (ln) (37 °C): -1.05 ± 0.27

Sequence: UGGCAGCAAUAUUACGCGCG
- self-splicing fitness (ln) (30 °C): -0.287 ± 0.064
- self-splicing fitness (ln) (37 °C): 0.0127 ± 0.089

Sequence: UAAGAGCAAUAUUACGUAUG
- self-splicing fitness (ln) (30 °C): -5.26 ± 0.45
- self-splicing fitness (ln) (37 °C): -2.47 ± 0.34

Sequence: UCAAAGCAAUAUUACGGCCA
- self-splicing fitness (ln) (30 °C): -0.546 ± 0.13
- self-splicing fitness (ln) (37 °C): -0.278 ± 0.11

Sequence: GUGCAGCAAUAUUACGAGCG
- self-splicing fitness (ln) (30 °C): -0.973 ± 0.072
- self-splicing fitness (ln) (37 °C): -0.518 ± 0.083

Sequence: CACUAGCAAUAUUACGUCCU
- self-splicing fitness (ln) (30 °C): -2.36 ± 0.13
- self-splicing fitness (ln) (37 °C): -1.24 ± 0.18

Sequence: AGCCAGCAAUAUUACGCCGA
- self-splicing fitness (ln) (37 °C): -0.449 ± 0.29

Sequence: UUAUAGCAAUAUUACGAGAU
- self-splicing fitness (ln) (30 °C): -3.27 ± 0.31
- self-splicing fitness (ln) (37 °C): -3.38 ± 0.39

Sequence: UGAUAGCAAUAUUACGUUGG
- self-splicing fitness (ln) (30 °C): -2.45 ± 0.12
- self-splicing fitness (ln) (37 °C): -1.63 ± 0.16

Sequence: GUGUAGCAAUAUUACGGGGU
- self-splicing fitness (ln) (30 °C): -3.62 ± 0.26
- self-splicing fitness (ln) (37 °C): -2.63 ± 0.34

Sequence: UGUGAGCAAUAUUACGGGCG
- self-splicing fitness (ln) (30 °C): -0.245 ± 0.1
- self-splicing fitness (ln) (37 °C): 0.233 ± 0.16

Sequence: CACAAGCAAUAUUACGGUAC
- self-splicing fitness (ln) (30 °C): -4.11 ± 0.22
- self-splicing fitness (ln) (37 °C): -2.03 ± 0.17

Sequence: AUGUAGCAAUAUUACGUGGG
- self-splicing fitness (ln) (37 °C): -3.13 ± 0.21

Sequence: UCAGAGCAAUAUUACGGACU
- self-splicing fitness (ln) (37 °C): -1.77 ± 0.3

Sequence: AACCAGCAAUAUUACGUGAG
- self-splicing fitness (ln) (30 °C): -0.744 ± 0.04
- self-splicing fitness (ln) (37 °C): -0.39 ± 0.067

Sequence: CAGAAGCAAUAUUACGGCAA
- self-splicing fitness (ln) (30 °C): -2.48 ± 0.22
- self-splicing fitness (ln) (37 °C): -1.25 ± 0.19

Sequence: GCAGAGCAAUAUUACGGAAA
- self-splicing fitness (ln) (37 °C): -2.15 ± 0.43

Sequence: AUUUAGCAAUAUUACGACUA
- self-splicing fitness (ln) (30 °C): -0.0865 ± 0.18
- self-splicing fitness (ln) (37 °C): -0.454 ± 0.15

Sequence: CAACAGCAAUAUUACGUGAA
- self-splicing fitness (ln) (30 °C): -1.36 ± 0.056
- self-splicing fitness (ln) (37 °C): -1.62 ± 0.1

Sequence: GUUCAGCAAUAUUACGCCUA
- self-splicing fitness (ln) (30 °C): -0.396 ± 0.15
- self-splicing fitness (ln) (37 °C): 0.127 ± 0.14
